Data on 1 molecule can be found in publication PMC2847530 (Molecular Biology of the Cell, 2010).

For this assay, the target named is T1, recombinant hexahistidine-tagged ScSec4 (S. cerevisiae, UniProt P07560 1-215).
T1 sequence: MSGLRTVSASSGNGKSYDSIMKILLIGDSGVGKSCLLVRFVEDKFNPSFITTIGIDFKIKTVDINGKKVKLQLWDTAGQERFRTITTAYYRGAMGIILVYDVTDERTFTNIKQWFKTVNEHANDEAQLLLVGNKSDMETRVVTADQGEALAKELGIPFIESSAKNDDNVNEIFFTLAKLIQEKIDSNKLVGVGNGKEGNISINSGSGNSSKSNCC
The experiment in a line: […]) in EDTA binding buffer.

B1: GST-ScSec2^1-160 (domain or fragment)
chain: MDASEEAKRVSIQVTSLSTQLIESVDKQSHLEEQLNKSLKTIASQKAAIENYNQLKEDYNTLKRELSDRDDEVKRLREDIAKENELRTKAEEEADKLNKEVEDLTASLFDEANNMVADARKEKYAIEILNKRLTEQLREKDTLLDTLTLQLKNLKKVMHS
Consider B1, for which the binding result was “binds”.
